This series deals with T1, amyloid-beta peptide (1–42) (Homo sapiens, UniProt P05067).
T1 construct: the region encoding A4 (APP amino acids 653 to 694)
Briefly: Binding of ^125I-TrcHis-ERAB polypeptide to amyloid-beta peptide (1–42) adsorbed to microtiter wells. As to conditions: excess unlabelled protein. Here is the method: FIGS. 2A, 2B, 2C, 2D, 2E, 2F, and 2G. […] FIG. 2A. SDS-PAGE (12%; reduced) followed by immunoblotting of TrcHis-ERAB polypeptide (FIG. 2A, lane 1; 2 μg) and TrcHis-chloramphenicol acetyltransferase (CAT; FIG. 2A, lane 2; 2 μg) fusion proteins using anti-ERAB polypeptide IgG (3 μg/ml). […] FIGS. 2B and 2C. […] Binding was analyzed by nonlinear least squares analysis using the method of Klotz and Hunston (60). FIG. 2E. […] FIGS. 2F and 2G. […] 0 indicates wells coated with albumin alone. […] Control TrcHis-CAT construct (Invitrogen) was also used to transform E. coli and the fusion protein was purified as above. Antibody to ERAB polypeptide was prepared by immunizing rabbits with ERAB polypeptide-derived peptides, corresponding to residues 100–116 and 133–147, conjugated to keyhole limpet hemocyanin. […] (for ERAB polypeptide) or overnight at 4° C. […] Unbound radioactivity was removed by washing wells five times with ice cold phosphate-buffered saline containing Tween 20 (0.05%), and bound radioactivity was eluted by incubation with Nonidet P-40 (1%).

B1: TrcHis-CAT: control fusion protein, TrcHis-chloramphenicol acetyltransferase (protein)
chain: MEKKITGYTTVDISQWHRKEHFEAFQSVAQCTYNQTVQLDITAFLKTVKKNKHKFYPAFIHILARLMNAHPEFRMAMKDGELVIWDSVHPCYTVFHEQTETFSSLWSEYHDDFRQFLHIYSQDVACYGENLAYFPKGFIENMFFVSANPWVSFTSFDLNVANMDNFFAPVFTMGKYYTQGDKVLMPLAIQVHHAVCDGFHVGRMLNELQQYCDEWQGGA
modifications: left off: small tags and cut ends
notes: control fusion protein, TrcHis-chloramphenicol acetyltransferase
On to B1, for which the “Inhibition of ^125I-TrcHis-ERAB binding to adsorbed amyloid-beta peptide” value is on record as “did not inhibit”.

(Values after US6994974B1, “Intracellular amyloid-beta binding (ERAB) polypeptide-related assays” (The trustees of Columbia University in the city of New York, priority 1997, dated 2006).)
